Numbering of substitutions follows the chain as printed. One block for each binder: values may come before it.
How the values were obtained:
[1] = target: T1, antigen protein TF (UniProt P13726 33-251, limits assumed); assay: BLI (Fortebio), antibody on ProA sensor, 1:1 model
T1 construct: Soluble TF used in ELISA coating and BLI; also called TF protein; Tissue Factor

[2] = target: T1, antigen protein TF; assay: ELISA, TF coated at 1 µg/mL, HRP-Protein A detection
[3] = target: T2, Tissue Factor on MDA-MB-231 cells (UniProt P13726 33-295, limits assumed); assay: flow cytometry on MDA-MB-231 cells, Alexa Fluor 488 anti-human IgG
T2 construct: whole, on cells
T2 sequence (P13726 33-295 limits assumed): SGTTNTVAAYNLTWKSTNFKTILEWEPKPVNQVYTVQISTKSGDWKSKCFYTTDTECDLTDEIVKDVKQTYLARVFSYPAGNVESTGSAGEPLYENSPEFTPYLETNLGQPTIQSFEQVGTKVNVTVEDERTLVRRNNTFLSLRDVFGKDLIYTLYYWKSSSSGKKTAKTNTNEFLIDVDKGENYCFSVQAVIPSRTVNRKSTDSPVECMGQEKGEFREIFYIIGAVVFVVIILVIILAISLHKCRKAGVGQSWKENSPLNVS

T1 sequence (P13726 33-251 limits assumed): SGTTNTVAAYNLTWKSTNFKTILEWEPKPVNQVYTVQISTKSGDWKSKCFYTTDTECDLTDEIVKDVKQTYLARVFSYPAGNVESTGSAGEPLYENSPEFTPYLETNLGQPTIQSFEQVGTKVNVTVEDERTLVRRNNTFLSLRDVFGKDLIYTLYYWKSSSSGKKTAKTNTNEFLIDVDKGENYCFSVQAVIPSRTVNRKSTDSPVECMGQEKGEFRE

- Kd [1]: 0.43 nM
- koff [1]: 0.000169 s⁻¹
- kon [1]: 392000 M⁻¹ s⁻¹
- EC50 [2]: 0.0155 µg/mL
- EC50 [3]: 1.13 µg/mL
B1: h1849-H2L1 (antibody, human IgG1, kappa, V domains shown)
VH: EVQLVESGGGVVQPGRSLRLSCAASGFTFSDYNMAWIRQAPGKGLEWVAAIIYDGTRTYYRDSVKGRFTISRDNSKSTLYLQMDSLRAEDTAVYYCATGDSYTNFAYWGQGTLVTVSS
VL: EIVLTQSPTFLSASVGDRVTITCRASSSLSYMHWYQQKPGTSPKLLIYETSKLQSGVPSRFSGSGSGTSFTLTIDSLQPEDFATYYCQQGNSYPRTFGGGTKVEIKR
notes: also called humanized anti-TF antibody

- koff [1]: < 1e-07 s⁻¹
- kon [1]: 324000 M⁻¹ s⁻¹
- EC50 [2]: 0.0191 µg/mL
- EC50 [3]: 2.3 µg/mL
B2: h1849-H3L3 (antibody, human IgG1, kappa, V domains shown)
VH: B1 VH with D84N
VL: B1 VL with F10S, Q54E, S69D
notes: as for B1

Reference: patent publication EP4796557A1 (Unovel (Shanghai) Biopharma Co., Ltd., dated 2025)
